For the data set, the target named is MITF N310S (DNA-binding fragment) (UniProt Q95MD1 112-207, N149S). In words: EMSA; 5 mM MgCl2; 2.0 uM protein end point; reduced by about 80%; 20 mM Tris, 50 mM NaCl, 5 mM MgCl2, 1 mM DTT, 33 ug/ml BSA, pH 7.4, on ice 30 min; 6% native PAGE in 0.5x TBE. Particulars: protein: recombinant; (Ni-NTA purified); chain copies: 2; label: radioactive label. On the technique in general: A gel shift assay detects complexes by their altered migration in electrophoresis.
Chain of MITF N310S (DNA-binding fragment) (Q95MD1 entry or part of it N149S | N310S N310S): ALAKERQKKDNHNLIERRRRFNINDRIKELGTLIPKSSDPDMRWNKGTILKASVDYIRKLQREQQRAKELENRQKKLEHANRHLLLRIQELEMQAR

B1: M-box oligonucleotide (dsDNA)
DNA 1: GGAAAGTTAGTCATGTGCTTTTCAGAAGA
DNA 2: TCTTCTGAAAAGCACATGACTAACTTTCC
For B1, the binding signal was ~20 % of wild-type binding.
